B1: Pistol ribozyme (parent)
chain: GGGUCGUUGUUCCAUAAUCGCGUGGAUAUGGCACGCAAGUUUCUACCGGGCACCGUAAAUGUCCGACUGGAGCCGUUCGGGCGGCUAUAAACAGACCUCAGGCCCGAAGCGUGGCGGCACCUGCCGCCGGUGGUAAAAAAGAUCGGAAGAGCACACGUCU

Variants of: B1
Assay: aptazyme ON/OFF ratio, guanine; higher = stronger switching; co-transcriptional cleavage with and without guanine

| Variant | aptazyme ON/OFF ratio |
| --- | --- |
| U7G U8G C12A C13G | 1.22 |
| U7G U8G C12A C13A | 1.31 |
| U7G U8G C12A C13U | 1.57 |
| U7G U8G G9A | 3.82 |
| U7G U8G G9C | 4.59 |
| U7G U8C U11A C12A | 1.37 |
| U7G U8C U11A C12U | 1.31 |
| U7G U8C U11A C12G | 1.12 |
| U7G U8G G9A U11C C12G | 1.33 |
| U7G U8G G9A U11C C12A | 1.5 |
| U7G U8G G9A U11C C12U | 1.65 |
| U7G U8G G9A U10A U11C C12A C13G | 1.17 |
| U7G U8G G9A U10A U11C C12A C13U | 1.09 |
| U7G U8G G9A U10A U11C C12A C13A | 1.06 |
| U7G U8G G9A U10A C12U | 1.52 |
| U7G U8G G9A U10A C12A | 1.46 |
| U7G U8G G9A U10A C12G | 1.5 |
| U7G U8G G9A U10C U11G C12U | 1.34 |
| U7G U8G G9A U10C U11G C12A | 1.15 |
| U7G U8G G9A U10C U11G C12G | 1.53 |
| U7G U8G G9A U10A U11C C13G | 1.06 |
| U7G U8G G9A U10A U11C C13A | 1.08 |
| U7G U8G G9A U10A U11C C13U | 1.05 |
| U7G U8G G9A U10C U11C C12A | 1.22 |

| Variant | aptazyme ON/OFF ratio |
| --- | --- |
| U7G U8G G9A U10C U11C C12U | 1.1 |
| U7G U8G G9A U10C U11C C12G | 1.21 |
| U7G U8C U11G C12G C13A | 1.11 |
| U7G U8C U11G C12G C13G | 1.11 |
| U7G U8C U11G C12G C13U | 1.12 |
| U7G U8C U11A C13A | 1.14 |
| U7G U8C U11A C13G | 1.03 |
| U7G U8C U11A C13U | 1.32 |
| U7G U8G G9A U10G U11G C12U C13G | 1.27 |
| U7G U8G G9A U10G U11G C12U C13A | 1.71 |
| U7G U8G G9A U10G U11G C12U C13U | 1.11 |
| U7G U8G G9A U11G C12G C13G | 1.12 |
| U7G U8G G9A U11G C12G C13A | 1.12 |
| U7G U8G G9A U11G C12G C13U | 1.23 |
| U7G U8C U11G C13A | 1.29 |
| U7G U8C U11G C13U | 1.17 |
| U7G U8C U11G C13G | 1.2 |
| U7G U8G G9A U10G U11A | 1.07 |
| U7G U8G G9A U10G U11G | 1.61 |
| U7G U8G G9A U10G U11C | 1.05 |
| U7G U8C U11A C12A C13U | 1.25 |
| U7G U8C U11A C12A C13G | 1.1 |
| U7G U8C U11A C12A C13A | 1.23 |
| U7G U8G G9A U10C U11C C12U C13U | 1.13 |

| Variant | aptazyme ON/OFF ratio |
| --- | --- |
| U7G U8G G9A U10C U11C C12U C13A | 1.04 |
| U7G U8G G9A U10C U11C C12U C13G | 1.36 |
| U7G U8C U11C C12A C13G | 1.26 |
| U7G U8C U11C C12A C13A | 1.37 |
| U7G U8C U11C C12A C13U | 1.46 |
| U7G U8G G9A U10C U11A C13U | 1.2 |
| U7G U8G G9A U10C U11A C13G | 1.1 |
| U7G U8G G9A U10C U11A C13A | 1.2 |
| U7G U8G G9A U11C C13U | 1.28 |
| U7G U8G G9A U11C C13A | 1.25 |
| U7G U8G G9A U11C C13G | 1.12 |
| U7G U8G G9A U10G U11A C13G | 1.11 |
| U7G U8G G9A U10G U11A C13U | 1.12 |
| U7G U8G G9A U10G U11A C13A | 1.11 |
| U7G U8G G9A C12G | 1.59 |
| U7G U8G G9A C12U | 1.68 |
| U7G U8G G9A C12A | 1.41 |
| U7G U8G C12G | 1.38 |
| U7G U8G C12A | 1.25 |
| U7G U8G C12U | 1.21 |
| U7G U8G G9A U10A C12A C13G | 1.04 |
| U7G U8G G9A U10A C12A C13A | 1.2 |
| U7G U8G G9A U10A C12A C13U | 1.06 |
| U7G U8G G9A U10A C13A | 1.28 |

| Variant | aptazyme ON/OFF ratio |
| --- | --- |
| U7G U8G G9A U10A C13G | 1.17 |
| U7G U8G G9A U10A C13U | 1.37 |
| U7G U8G G9A U11G C13A | 1.26 |
| U7G U8G G9A U11G C13G | 1.17 |
| U7G U8G G9A U11G C13U | 1.3 |
| U7G U8G G9A U10G U11A C12U | 1.13 |
| U7G U8G G9A U10G U11A C12A | 1.07 |
| U7G U8G G9A U10G U11A C12G | 1.15 |
| U7G U8G G9A U10A U11A C12A C13A | 1.11 |
| U7G U8G G9A U10A U11A C12A C13G | 1.07 |
| U7G U8G G9A U10A U11A C12A C13U | 1.38 |
| U7G U8G G9A U10A U11G C13G | 1.16 |
| U7G U8G G9A U10A U11G C13U | 1.14 |
| U7G U8G G9A U10A U11G C13A | 1.09 |
| U7G U8G G9A U11A C12G C13G | 1.06 |
| U7G U8G G9A U11A C12G C13A | 1.03 |
| U7G U8G G9A U11A C12G C13U | 1.15 |
| U7G U8G G9A U10A U11A C12U | 1.35 |
| U7G U8G G9A U10A U11A C12G | 1.16 |
| U7G U8G G9A U10A U11A C12A | 1.19 |
| U7G U8G G9A U10C C12A C13U | 1.32 |
| U7G U8G G9A U10C C12A C13G | 1.14 |
| U7G U8G G9A U10C C12A C13A | 1.13 |
| U7G U8G G9A U11G C12A C13G | 1.09 |

| Variant | aptazyme ON/OFF ratio |
| --- | --- |
| U7G U8G G9A U11G C12A C13U | 1.18 |
| U7G U8G G9A U11G C12A C13A | 0.999 |
| U7G U8G G9A U10C C12U C13G | 1.18 |
| U7G U8G G9A U10C C12U C13U | 1.29 |
| U7G U8G G9A U10C C12U C13A | 1.11 |
| U7G U8C U11A | 1.39 |
| U7G U8C U11G | 1.01 |
| U7G U8C U11C | 1.53 |
| U7G U8G C12U C13G | 1.39 |
| U7G U8G C12U C13A | 1.31 |
| U7G U8G C12U C13U | 1.5 |
| U7G U8G G9A U10G C12A C13G | 1.07 |
| U7G U8G G9A U10G C12A C13U | 1.32 |
| U7G U8G G9A U10G C12A C13A | 1.1 |
| U7G U8G G9A U10C U11G C12G C13G | 1.14 |
| U7G U8G G9A U10C U11G C12G C13A | 1.1 |
| U7G U8G G9A U10C U11G C12G C13U | 1.08 |
| U7G U8G G9A U10G U11A C12G C13A | 1.13 |
| U7G U8G G9A U10G U11A C12G C13G | 1.18 |
| U7G U8G G9A U10G U11A C12G C13U | 1.26 |
| U7G U8G G9A U10C U11A C12A C13A | 1.2 |
| U7G U8G G9A U10C U11A C12A C13U | 1.25 |
| U7G U8G G9A U10C U11A C12A C13G | 1.15 |
| U7G U8G G9A U10G U11C C12G C13U | 1.28 |

| Variant | aptazyme ON/OFF ratio |
| --- | --- |
| U7G U8G G9A U10G U11C C12G C13G | 1.13 |
| U7G U8G G9A U10G U11C C12G C13A | 1.16 |
| U7G U8G G9A U11A C13G | 1.06 |
| U7G U8G G9A U11A C13A | 1.35 |
| U7G U8G G9A U11A C13U | 1.11 |
| U7G U8G G9A U10A | 2.16 |
| U7G U8G G9A U10C | 3.59 |
| U7G U8G G9A U10G | 1.83 |
| U7G U8G G9A U11G C12U | 1.5 |
| U7G U8G G9A U11G C12A | 1.28 |
| U7G U8G G9A U11G C12G | 1.39 |
| U7G U8G G9A U10C U11G C13A | 1.27 |
| U7G U8G G9A U10C U11G C13U | 1.19 |
| U7G U8G G9A U10C U11G C13G | 1.28 |
| U7G U8G G9A U10A U11G C12U C13A | 1.13 |
| U7G U8G G9A U10A U11G C12U C13G | 1.12 |
| U7G U8G G9A U10A U11G C12U C13U | 1.35 |
| U7G U8G G9A U11C C12A C13A | 1.39 |
| U7G U8G G9A U11C C12A C13G | 1.15 |
| U7G U8G G9A U11C C12A C13U | 1.41 |
| U7G U8G G9A U10G U11G C12G C13A | 1.23 |
| U7G U8G G9A U10G U11G C12G C13U | 1.11 |
| U7G U8G G9A U10G U11G C12G C13G | 1.25 |
| U7G U8G G9A U10C U11G C12A C13G | 1.14 |

| Variant | aptazyme ON/OFF ratio |
| --- | --- |
| U7G U8G G9A U10C U11G C12A C13U | 1.19 |
| U7G U8G G9A U10C U11G C12A C13A | 1.11 |
| U7G U8G G9A U10A U11C C12U C13A | 1.08 |
| U7G U8G G9A U10A U11C C12U C13U | 1.15 |
| U7G U8G G9A U10A U11C C12U C13G | 1.17 |
| U7G U8G G9A C12G C13U | 1.3 |
| U7G U8G G9A C12G C13A | 1.14 |
| U7G U8G G9A C12G C13G | 1.14 |
| U7G U8G G9A U10A U11C C12A | 1.21 |
| U7G U8G G9A U10A U11C C12G | 1.23 |
| U7G U8G G9A U10A U11C C12U | 1.1 |
| U7G U8G G9A U10G U11C C13U | 1.08 |
| U7G U8G G9A U10G U11C C13A | 1.15 |
| U7G U8G G9A U10G U11C C13G | 1.08 |
| U7G U8G G9A U10G U11A C12U C13G | 1.21 |
| U7G U8G G9A U10G U11A C12U C13A | 1.15 |
| U7G U8G G9A U10G U11A C12U C13U | 1.07 |
| U7G U8C U10G U11G C13G | 1.26 |
| U7G U8C U10G U11G C13U | 1.3 |
| U7G U8G G9A U10C U11C C12A C13G | 1.2 |
| U7G U8G G9A U10C U11C C12A C13A | 1.19 |
| U7G U8G G9A U10C U11C C12A C13U | 1.11 |
| U7G U8G G9A U11G | 1.91 |

From the RNAGym collection of RNA variant scans (doi:10.1021/acssynbio.7b00057)
